Results on one molecule are retold here after patent US20170101470A1 (PROTHENA BIOSCIENCES, published 2017).

What all share (test): shotgun mutagenesis, immunodetection on BHK-S cells, 0.25 ug/mL, background-subtracted and normalised to WT, triplicate
Assay [1] deals with T1, human MCAM I207A mutant clone on BHK-S cells (human) (UniProt P43121).
T1 sequence: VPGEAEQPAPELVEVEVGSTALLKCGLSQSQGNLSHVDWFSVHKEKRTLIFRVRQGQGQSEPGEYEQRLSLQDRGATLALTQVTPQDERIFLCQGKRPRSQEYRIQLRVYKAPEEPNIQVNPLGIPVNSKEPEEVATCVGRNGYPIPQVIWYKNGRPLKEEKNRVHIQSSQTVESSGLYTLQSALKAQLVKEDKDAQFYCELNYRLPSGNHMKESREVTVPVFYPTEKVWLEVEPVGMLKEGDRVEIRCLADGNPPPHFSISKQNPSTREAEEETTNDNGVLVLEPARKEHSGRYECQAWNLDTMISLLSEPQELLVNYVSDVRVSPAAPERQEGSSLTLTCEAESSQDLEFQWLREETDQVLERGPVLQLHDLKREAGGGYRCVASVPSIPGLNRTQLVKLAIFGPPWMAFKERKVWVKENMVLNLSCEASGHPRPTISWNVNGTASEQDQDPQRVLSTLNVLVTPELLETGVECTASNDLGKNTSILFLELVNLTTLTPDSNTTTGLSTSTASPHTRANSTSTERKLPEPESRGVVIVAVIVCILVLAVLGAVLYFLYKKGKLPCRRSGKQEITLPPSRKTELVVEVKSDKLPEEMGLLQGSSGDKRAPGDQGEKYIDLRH

The target of assay [2] is T2, human MCAM S206A mutant clone on BHK-S cells (human) (UniProt P43121).
T2 sequence: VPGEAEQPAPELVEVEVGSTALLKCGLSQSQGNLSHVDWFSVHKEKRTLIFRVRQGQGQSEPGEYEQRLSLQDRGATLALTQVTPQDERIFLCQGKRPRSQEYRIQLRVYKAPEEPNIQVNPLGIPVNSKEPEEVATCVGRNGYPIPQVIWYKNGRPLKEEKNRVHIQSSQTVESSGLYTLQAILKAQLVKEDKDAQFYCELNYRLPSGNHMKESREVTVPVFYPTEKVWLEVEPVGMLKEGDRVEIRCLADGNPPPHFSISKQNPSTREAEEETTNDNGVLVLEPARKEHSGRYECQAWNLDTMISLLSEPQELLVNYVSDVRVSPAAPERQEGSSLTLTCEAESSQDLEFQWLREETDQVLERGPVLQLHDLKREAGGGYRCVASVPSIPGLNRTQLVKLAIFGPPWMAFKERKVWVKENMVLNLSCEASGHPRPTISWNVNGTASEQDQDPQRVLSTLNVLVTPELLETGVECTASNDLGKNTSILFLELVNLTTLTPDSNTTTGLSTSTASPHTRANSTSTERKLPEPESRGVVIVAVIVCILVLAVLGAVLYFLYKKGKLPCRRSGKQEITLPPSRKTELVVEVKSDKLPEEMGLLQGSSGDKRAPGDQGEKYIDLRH

Assay [3] deals with T3, human MCAM P145A mutant clone on BHK-S cells (human) (UniProt P43121).
T3 sequence: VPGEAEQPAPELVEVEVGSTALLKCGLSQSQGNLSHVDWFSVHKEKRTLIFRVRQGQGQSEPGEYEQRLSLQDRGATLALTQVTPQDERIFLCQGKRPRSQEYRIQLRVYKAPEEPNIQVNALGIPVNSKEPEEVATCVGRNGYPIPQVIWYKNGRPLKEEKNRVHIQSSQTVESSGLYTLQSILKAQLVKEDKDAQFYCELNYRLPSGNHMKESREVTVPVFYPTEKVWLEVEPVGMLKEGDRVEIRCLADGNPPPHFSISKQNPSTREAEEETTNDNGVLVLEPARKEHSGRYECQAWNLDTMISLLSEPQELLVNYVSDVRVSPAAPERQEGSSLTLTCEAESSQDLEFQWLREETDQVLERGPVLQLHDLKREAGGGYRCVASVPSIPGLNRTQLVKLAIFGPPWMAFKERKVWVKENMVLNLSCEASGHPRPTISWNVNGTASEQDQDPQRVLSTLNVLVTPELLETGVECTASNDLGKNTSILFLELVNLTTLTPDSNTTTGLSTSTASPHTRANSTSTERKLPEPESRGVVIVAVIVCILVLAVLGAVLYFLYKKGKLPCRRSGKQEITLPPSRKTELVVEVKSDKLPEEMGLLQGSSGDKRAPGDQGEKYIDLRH

For assay [4], the target named is T4, human MCAM Y167A mutant clone on BHK-S cells (human) (UniProt P43121).
T4 sequence: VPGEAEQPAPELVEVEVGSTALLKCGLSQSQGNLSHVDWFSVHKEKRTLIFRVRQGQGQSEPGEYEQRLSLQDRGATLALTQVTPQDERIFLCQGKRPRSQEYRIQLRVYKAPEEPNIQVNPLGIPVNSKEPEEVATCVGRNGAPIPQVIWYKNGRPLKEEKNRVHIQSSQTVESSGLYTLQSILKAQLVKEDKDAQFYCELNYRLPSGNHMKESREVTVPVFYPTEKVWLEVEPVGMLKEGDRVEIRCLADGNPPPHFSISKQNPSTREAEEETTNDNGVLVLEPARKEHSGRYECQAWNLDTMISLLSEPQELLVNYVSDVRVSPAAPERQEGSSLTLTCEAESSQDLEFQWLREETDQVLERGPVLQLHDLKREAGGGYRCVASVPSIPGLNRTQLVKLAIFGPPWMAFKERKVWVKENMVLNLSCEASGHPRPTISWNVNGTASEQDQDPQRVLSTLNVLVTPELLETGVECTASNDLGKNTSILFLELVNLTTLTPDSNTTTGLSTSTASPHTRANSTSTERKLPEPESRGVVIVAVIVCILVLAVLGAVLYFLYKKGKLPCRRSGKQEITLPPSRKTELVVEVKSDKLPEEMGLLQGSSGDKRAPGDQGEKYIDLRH

B1: rat anti-human MCAM monoclonal antibody clone 2120.4.19 (antibody, V domains shown)
VH: QVQLKESGPGLVQPSQTLSLTCTVSGFSLTSNGVSWVRQPPGKGLEWIAAISSGGTTYYNSAFKSRLSISRNTSKSQVLLKMNSLQTEDTAMYFCARRYGYGWYFDFWGPGTMVTVSS
VL: DIRMTQSPSLLSASVGDRVTLNCKASQNIYNSLAWYQQKLGEGPKVLIPNANSLQTGIPSRFSGSGSGTDFTLTISSLQPEDFATYFCQQFYSGYTFGAGTKLELK
notes: also called m2120
For the molecule B1, the mean reactivity (% of wild type MCAM) in assay [1] came to 23.6 % WT; in assay [2] it was 17.9 % WT; in assay [3] it was 26.3 % WT; in assay [4], 14.3 % WT.
